{"source": "patent US20230220053A1", "about": "(published 2023)", "key": {"[1]": {"molecular_target": "T1, RBD of SARS-CoV-2 spike protein S1 (recombinant, construct not stated) (SARS-CoV-2, UniProt P0DTC2 328-533)", "T1 construct": "also called SARS-COV-2, RBD; RBD-AF647", "assay": "SPR (Biacore T200), IgG captured on protein A chip, RBD injected"}, "[2]": {"molecular_target": "T2, S1 protein of SARS-COV (ACRO Biosciences) (SARS-COV, UniProt P59594 14-667)", "T2 construct": "domain: S1", "assay": "SPR (Biacore T200), IgG captured on protein A chip, SARS-COV S1 injected"}, "[3]": {"molecular_target": "T3, S1 protein of SARS-CoV-2 (recombinant, construct not stated) (SARS-CoV-2, UniProt P0DTC2 16-685)"}, "[4]": {"molecular_target": "T4, RBD of SARS-COV (ACRO Biosciences) (SARS-COV, UniProt P59594 306-527)", "T4 construct": "domain: RBD; also called RBD-SARS; SARS-COV, RBD", "assay": "ELISA, SARS-COV RBD (ACRO) coated, anti-human Fc HRP"}, "[5]": {"molecular_target": "T2, S1 protein of SARS-COV (ACRO …)", "assay": "ELISA, SARS-COV S1 (ACRO) coated, anti-human Fc HRP"}, "[6]": {"molecular_target": "T3, S1 protein of SARS-CoV-2 (recombinant, …)", "remark": "listed apart in the source"}, "[7]": {"molecular_target": "HIS tagged S1 of SARS-CoV-2 (SARS-CoV-2, UniProt P0DTC2 16-685)"}, "[8]": {"molecular_target": "SARS-CoV-2-RBD (328-533)-His (SARS-CoV-2, UniProt P0DTC2 328-533)"}, "[9]": {"molecular_target": "T4, RBD of SARS-COV (ACRO Biosciences)", "assay": "SPR (Biacore T200), IgG captured on protein A chip, SARS-COV RBD injected"}, "[10]": {"molecular_target": "T3, S1 protein of SARS-CoV-2 (recombinant, …)", "assay": "SPR (Biacore T200), IgG captured on protein A chip, S1 injected"}, "[11]": {"molecular_target": "T1, RBD of SARS-CoV-2 spike protein S1 …", "assay": "ELISA, RBD coated, IgG1 titrated, anti-human Fc HRP"}, "[12]": {"molecular_target": "S protein of SARS-COV-2 (Sino Biologics) (SARS-CoV-2, UniProt P0DTC2 16-1213)", "assay": "ELISA, S protein (Sino Biologics) coated, anti-human Fc HRP"}, "[13]": {"molecular_target": "T3, S1 protein of SARS-CoV-2 (recombinant, …)", "assay": "ELISA, S1 coated, IgG1 titrated, anti-human Fc HRP"}}, "note": "Like-named read-outs stand apart in the source and are kept apart here."}
{"binder": "2020EP54-E10 IgG1 (antibody, V domains shown, also called 2020EP054-E10) VH: QVQLVQSGAEVRKPGSSVKVSCKASGGTFSSFAISWVRQAPGQGLEWMGGIIPIFDTATYAQNFQGRVRMTADESTNTAYMELSSLTSEDTAVYYCARSTSYYDSRGDYKVGDFDYWGQGTLVTVSS VL: not shown", "values": [{"measurement": "Kd", "setting": "[1]", "value": 0.131, "unit": "nM"}, {"measurement": "koff", "setting": "[1]", "value": 0.00032, "unit": "s⁻¹"}, {"measurement": "kon", "setting": "[1]", "value": "2.43e+06", "unit": "M⁻¹ s⁻¹"}, {"measurement": "Kd", "setting": "[2]", "value": 57.1, "unit": "nM"}, {"measurement": "koff", "setting": "[2]", "value": 0.00433, "unit": "s⁻¹"}, {"measurement": "kon", "setting": "[2]", "value": 75800, "unit": "M⁻¹ s⁻¹"}, {"measurement": "IC50", "setting": "[3]", "value": 2.71, "unit": "nM"}, {"measurement": "EC50", "setting": "[4]", "value": 0.035, "unit": "nM"}, {"measurement": "EC50", "setting": "[5]", "value": 0.027, "unit": "nM"}, {"measurement": "IC50", "setting": "[6]", "value": 0.774, "unit": "nM"}, {"measurement": "Kd", "setting": "[7]", "value": 2.3, "unit": "nM"}, {"measurement": "koff", "setting": "[7]", "value": 0.000498, "unit": "s⁻¹"}, {"measurement": "kon", "setting": "[7]", "value": 217000, "unit": "M⁻¹ s⁻¹"}, {"measurement": "Kd", "setting": "[8]", "value": 0.554, "unit": "nM"}, {"measurement": "koff", "setting": "[8]", "value": 0.000807, "unit": "s⁻¹"}, {"measurement": "kon", "setting": "[8]", "value": "1.46e+06", "unit": "M⁻¹ s⁻¹"}, {"measurement": "Kd", "setting": "[9]", "value": 3.69, "unit": "nM"}, {"measurement": "koff", "setting": "[9]", "value": 0.00675, "unit": "s⁻¹"}, {"measurement": "kon", "setting": "[9]", "value": "1.83e+06", "unit": "M⁻¹ s⁻¹"}, {"measurement": "Kd", "setting": "[10]", "value": 1.15, "unit": "nM"}, {"measurement": "koff", "setting": "[10]", "value": 0.000292, "unit": "s⁻¹"}, {"measurement": "kon", "setting": "[10]", "value": 254000, "unit": "M⁻¹ s⁻¹"}, {"measurement": "EC50", "setting": "[11]", "value": 0.08, "unit": "nM"}, {"measurement": "EC50", "setting": "[12]", "value": 0.0846, "unit": "nM"}, {"measurement": "EC50", "setting": "[13]", "value": 0.084, "unit": "nM"}]}
